In article doi:10.1101/2022.11.04.515266:

Legend:
[1] = target: Sinorhizobium meliloti Clr, C-terminally His6-tagged (Sinorhizobium meliloti); experiment: SEC
[2] = target: Sinorhizobium meliloti Clr, C-terminally His6-tagged (Sinorhizobium meliloti); experiment: crystal structure

percent in the monomeric state (monomer-dimer equilibrium) [1]: 86%
stoichiometry N [2]: 2
Substance: Sinorhizobium meliloti Clr, C-terminally His6-tagged (natural protein)
